Laboratory results published in PMC11091212, “Microfibril-associated glycoprotein 4 forms octamers that mediate interactions with elastogenic proteins and cells” (Nature Communications, 2024).
Where a chain is given by its changes, count along the chain named. Numbers in names are those of the source.

B1: Microfibril-associated glycoprotein 4 (natural protein, human, UniProt P55083 22-255, looked up)
chain: VSGIRGDALERFCLQQPLDCDDIYAQGYQSDGVYLIYPSGPSVPVPVFCDMTTEGGKWTVFQKRFNGSVSFFRGWNDYKLGFGRADGEYWLGLQNMHLLTLKQKYELRVDLEDFENNTAYAKYADFSISPNAVSAEEDGYTLFVAGFEDGGAGDSLSYHSGQKFSTFDRDQDLFVQNCAALSSGAFWFRSCHFANLNGFYLGGSHLSYANGINWAQWKGFYYSLKRTEMKIRRA
modifications: intermolecular disulphide bond between C34 of two monomers; N-glycosylated at N87 and N137 (cryo-EM density)
notes: signal peptide in the construct; Q21 is the first residue after signal peptide cleavage; Octamer (8 copies) in TBS with 2 mM Ca2+; tetramer (4 copies) after Ca2+ depletion with EDTA or EGTA; also called MFAP4; source: HEK293 EBNA cells, transfected (pCEP4-MFAP4), conditioned medium, purified by nickel chelating chromatography
B2: MFAP4_(C34S) (natural protein, human, UniProt P55083 22-255, looked up)
chain: B1 chain with C13S
notes: signal peptide in the construct; human MFAP4, M1KAL...IRRA255 with C34S; Q21 is the first residue after signal peptide cleavage; Octamer in TBS with Ca2+; tetramer after Ca2+ depletion; No intermolecular disulphide bond; also called MFAP_(C34S); source: HEK293 EBNA cells, transfected (pCEP4-MFAP4_(C34S)), conditioned medium, purified by nickel chelating chromatography
B3: fibrillin-1 centre region fragment rF1M (domain or fragment)
chain: not shown

Legend:
[1] = molecular target: the molecule itself; assay: dynamic light scattering; TBS/Ca2+ (2 mM); mass from hydrodynamic radius by calibration with standard proteins, globular model; monomers to octamer
[2] = molecular target: the molecule itself; assay: cryo-EM structure; MFAP4 after Ca2+ depletion with 5 mM EDTA; single particle analysis, C2 symmetry; tetramer
[3] = molecular target: T1, fibulin-5 (UniProt Q9UBX5 24-448); assay: SPR; Ca2+ form (octamer): MFAP4 or MFAP4_(C34S) amine-coupled on CM5 (Biacore X), elastogenic proteins as analytes 5-100 µg/mL in TBS/Ca2+ (2 mM CaCl2); 1:1 Langmuir fit, KD is the average over five concentrations; conditions: both partners purified
T1 construct: fibulin-5, recombinant
T1 sequence (looked up): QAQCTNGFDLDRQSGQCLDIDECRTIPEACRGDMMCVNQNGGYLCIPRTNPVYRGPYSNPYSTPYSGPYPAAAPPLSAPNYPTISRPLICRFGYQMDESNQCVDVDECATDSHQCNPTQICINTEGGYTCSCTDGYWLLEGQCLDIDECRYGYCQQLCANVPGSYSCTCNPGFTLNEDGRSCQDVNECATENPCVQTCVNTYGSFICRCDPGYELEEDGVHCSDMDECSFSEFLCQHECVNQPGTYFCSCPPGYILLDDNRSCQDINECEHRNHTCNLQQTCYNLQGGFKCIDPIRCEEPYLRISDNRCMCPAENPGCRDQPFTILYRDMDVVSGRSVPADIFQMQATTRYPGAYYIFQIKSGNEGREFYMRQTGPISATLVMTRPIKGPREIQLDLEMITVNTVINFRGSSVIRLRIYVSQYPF

[4] = molecular target: T2, fibulin-4 (UniProt O95967 24-443); assay: as above; conditions: both partners purified
T2 construct: fibulin-4, recombinant
T2 sequence (looked up): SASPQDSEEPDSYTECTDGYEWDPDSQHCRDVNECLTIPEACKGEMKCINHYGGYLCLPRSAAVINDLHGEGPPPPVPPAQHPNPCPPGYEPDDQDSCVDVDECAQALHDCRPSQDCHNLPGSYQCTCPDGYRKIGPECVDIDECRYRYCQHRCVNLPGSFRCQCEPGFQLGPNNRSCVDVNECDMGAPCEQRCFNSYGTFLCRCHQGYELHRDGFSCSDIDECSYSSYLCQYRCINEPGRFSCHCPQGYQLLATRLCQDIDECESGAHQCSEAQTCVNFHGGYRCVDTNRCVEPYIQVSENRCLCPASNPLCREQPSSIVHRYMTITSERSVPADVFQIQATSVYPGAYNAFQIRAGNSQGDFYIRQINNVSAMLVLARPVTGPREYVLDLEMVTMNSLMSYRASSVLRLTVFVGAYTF

[5] = molecular target: T3, latent transforming growth factor beta binding protein-4, long isoform (UniProt Q8N2S1-1 28-1624); assay: as above; conditions: both partners purified
T3 construct: LTBP4, long isoform (LTBP4L); also called LTBP4L
T3 sequence (Q8N2S1 28-1624): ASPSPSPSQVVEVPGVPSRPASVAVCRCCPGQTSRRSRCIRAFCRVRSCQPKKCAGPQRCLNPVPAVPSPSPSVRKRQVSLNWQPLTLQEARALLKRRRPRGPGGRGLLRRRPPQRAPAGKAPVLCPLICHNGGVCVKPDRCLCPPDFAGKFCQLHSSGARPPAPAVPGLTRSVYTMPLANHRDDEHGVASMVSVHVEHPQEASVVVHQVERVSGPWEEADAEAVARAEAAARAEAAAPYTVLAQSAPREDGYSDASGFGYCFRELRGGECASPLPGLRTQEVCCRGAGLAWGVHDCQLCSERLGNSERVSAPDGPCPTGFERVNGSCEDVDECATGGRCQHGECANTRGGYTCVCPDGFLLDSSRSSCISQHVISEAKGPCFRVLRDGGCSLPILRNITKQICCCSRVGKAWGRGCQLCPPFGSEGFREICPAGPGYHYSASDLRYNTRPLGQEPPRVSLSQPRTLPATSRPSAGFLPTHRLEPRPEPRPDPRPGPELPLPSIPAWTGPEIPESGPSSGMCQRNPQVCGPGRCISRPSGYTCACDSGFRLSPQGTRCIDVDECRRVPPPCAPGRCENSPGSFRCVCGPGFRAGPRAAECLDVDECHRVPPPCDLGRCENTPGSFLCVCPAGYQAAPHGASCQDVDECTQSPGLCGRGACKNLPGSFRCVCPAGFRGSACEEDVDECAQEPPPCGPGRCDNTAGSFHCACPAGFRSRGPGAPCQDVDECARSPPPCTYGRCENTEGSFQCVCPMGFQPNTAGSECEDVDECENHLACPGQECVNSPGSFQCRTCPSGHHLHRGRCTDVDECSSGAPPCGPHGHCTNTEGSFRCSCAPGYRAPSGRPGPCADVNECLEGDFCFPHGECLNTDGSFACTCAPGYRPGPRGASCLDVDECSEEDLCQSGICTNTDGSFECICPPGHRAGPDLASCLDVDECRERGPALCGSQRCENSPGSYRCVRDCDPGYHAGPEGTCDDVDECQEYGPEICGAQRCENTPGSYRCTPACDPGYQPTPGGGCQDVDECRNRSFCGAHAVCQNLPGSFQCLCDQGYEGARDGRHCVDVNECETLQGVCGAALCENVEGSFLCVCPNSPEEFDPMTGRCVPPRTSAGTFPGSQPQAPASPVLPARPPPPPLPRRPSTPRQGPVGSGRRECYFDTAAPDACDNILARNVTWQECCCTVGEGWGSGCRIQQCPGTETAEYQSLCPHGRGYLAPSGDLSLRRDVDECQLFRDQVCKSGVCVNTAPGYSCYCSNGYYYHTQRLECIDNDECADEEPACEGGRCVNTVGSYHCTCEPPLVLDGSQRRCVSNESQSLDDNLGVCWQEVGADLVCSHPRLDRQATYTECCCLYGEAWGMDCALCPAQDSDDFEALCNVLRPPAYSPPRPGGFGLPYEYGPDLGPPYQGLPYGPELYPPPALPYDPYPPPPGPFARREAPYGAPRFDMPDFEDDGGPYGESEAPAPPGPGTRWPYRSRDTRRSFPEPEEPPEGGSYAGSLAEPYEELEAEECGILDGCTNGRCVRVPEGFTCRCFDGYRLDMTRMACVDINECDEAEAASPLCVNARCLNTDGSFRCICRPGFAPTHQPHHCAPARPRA

[6] = molecular target: T4, recombinant human tropoelastin (human, UniProt P15502 27-786); assay: as above; conditions: both partners purified
T4 construct: human tropoelastin, recombinant; source: bought: Elastagen
T4 sequence (looked up): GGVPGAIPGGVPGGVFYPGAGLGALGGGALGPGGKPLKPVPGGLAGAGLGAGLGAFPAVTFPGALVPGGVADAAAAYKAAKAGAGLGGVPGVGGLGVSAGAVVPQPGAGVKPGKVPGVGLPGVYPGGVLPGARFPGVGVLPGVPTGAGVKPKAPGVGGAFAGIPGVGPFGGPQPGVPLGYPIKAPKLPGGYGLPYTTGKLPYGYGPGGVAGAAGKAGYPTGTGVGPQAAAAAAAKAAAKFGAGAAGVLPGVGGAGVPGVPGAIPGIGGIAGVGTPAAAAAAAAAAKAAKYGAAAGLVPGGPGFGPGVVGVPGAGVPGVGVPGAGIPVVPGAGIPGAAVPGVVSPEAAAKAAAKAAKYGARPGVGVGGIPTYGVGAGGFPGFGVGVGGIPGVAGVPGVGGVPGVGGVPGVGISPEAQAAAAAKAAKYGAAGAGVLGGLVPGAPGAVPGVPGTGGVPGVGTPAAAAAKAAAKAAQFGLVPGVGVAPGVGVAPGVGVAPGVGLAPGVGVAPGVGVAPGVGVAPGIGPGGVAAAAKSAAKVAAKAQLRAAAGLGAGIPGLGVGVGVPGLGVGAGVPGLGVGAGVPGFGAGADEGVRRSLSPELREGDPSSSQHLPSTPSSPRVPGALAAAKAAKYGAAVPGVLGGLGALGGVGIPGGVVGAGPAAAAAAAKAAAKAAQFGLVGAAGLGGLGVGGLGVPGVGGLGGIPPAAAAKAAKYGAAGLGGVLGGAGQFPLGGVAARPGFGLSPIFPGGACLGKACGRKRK

[7] = molecular target: the molecule itself; assay: SPR; self-interaction of octamers; Biacore X, CM5 chip, MFAP4 or MFAP4_(C34S) amine-coupled (300-500 RU), same protein as analyte 5-100 µg/mL in TBS/Ca2+ (50 mM Tris-HCl pH 7.4, 150 mM NaCl, 2 mM CaCl2); 1:1 Langmuir fit, KD is the average over five concentrations
[8] = molecular target: the molecule itself; assay: SDS-PAGE; non-reducing, 10% gel, Coomassie stain; disulphide-linked dimer
[9] = molecular target: the molecule itself; assay: atomic force microscopy; MFAP4 or MFAP4_(C34S) Ca2+-depleted (5 mM EDTA); particle heights on mica, tapping mode in air
[10] = molecular target: B1; assay: SPR; Ca2+ form (octamer): MFAP4 or MFAP4_(C34S) amine-coupled on CM5 (Biacore X), elastogenic proteins as analytes 5-100 µg/mL in TBS/Ca2+ (2 mM CaCl2); 1:1 Langmuir fit, KD is the average over five concentrations; conditions: both partners purified

| Binder | stoichiometry N [1] | stoichiometry N [2] | Kd [3] [nM] | Kd [4] [nM] | Kd [5] [nM] | Kd [6] [nM] | Kd [7] [nM] | stoichiometry N [8] | stoichiometry N [9] | Kd [10] [nM] |
| --- | --- | --- | --- | --- | --- | --- | --- | --- | --- | --- |
| B1 | 8 | 4 | 357 | 110 | 18 | 45 | 6.2 | 2 |  |  |
| B2 | 8 |  |  |  |  |  | 5.8 |  | 4 |  |
| B3 |  |  |  |  |  |  |  |  |  | 1.2 |
